Results on four molecules are retold here after US20260028403A1 (Zymeworks, published 2026).

Test [1] concerns the target T1, Recombinant MSLN his tag protein (R&D systems) (UniProt Q13421 296-580, limits assumed).
T1 construct: his tag; also called mesothelin
Briefly: SPR Biacore T200, MSLN-his on CM5, construct flowed, 1:1 model. (SPR reads the build-up and loss of mass on a sensor chip optically.)

Test [2] has as its target T2, Recombinant human CD3 epsilon/delta heterodimer, his tag protein (Acro Biosystems) (human, UniProt P07766 23-126; P04234 22-105).
T2 construct: bought
Briefly: SPR Biacore T200, CD3 e/d-his on CM5, construct injected, 1:1 model.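 Also: measured at 25 °C in HEPES-buffered saline with EDTA and Tween 20 at pH 7.4, values are means of three independent runs.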

Test [3] deals with T3, Recombinant human/cynomolgus/rhesus macaque CD28 mouse IgG2a Fc fusion protein (Acro Biosystems) (human/cynomolgus/rhesus macaque, UniProt P10747 19-152).
T3 construct: bought; also called huCD28
Briefly: SPR Biacore T200, CD28-mIgG2a Fc on CM5, construct injected, 1:1 model.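 Also: fc fusion captured by amine coupling, run at 25 °C in HEPES buffer pH 7.4, association 140-500 s then dissociation 600-1200 s, values averaged over three independent runs.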

B1: v34913 (trispecific antibody, human IgG1, kappa, L234A L235A)
heavy 1: not shown
heavy 2: EIVLTQSPATLSLSPGERVTMSCSASSSVSYMHWYQQKPGQAPRLWIYDTSKLASGVPARFSGSGSGTDYTLTISSVEPEDNAVYYCQQWSGHPLTFGQGTKVEIKGGGGSGGGGSGGGGSGGGGSQVQLVQSGAEVKKPGASVKISCKASGYSFTGYTMNWVRQAPGQGLEWIGLITPYSGASSYAQKFQGRATLTVDKSTSTAYMELSSLRSEDTAVYYCARGGYDGRGFDYWGQGTNVTVSSAAEPKSSDKTHTCPPCPAPEAAGGPSVFLFPPKPKDTLMISRTPEVTCVVVSVSHEDPEVKFNWYVDGVEVHNAKTKPREEQYNSTYRVVSVLTVLHQDWLNGKEYKCKVSNKALPAPIEKTISKAKGQPREPQVYVLPPSRDELTKNQVSLLCLVKGFYPSDIAVEWESNGQPENNYLTWPPVLDSDGSFFLYSKLTVDKSRWQQGNVFSCSVMHEALHNHYTQKSLSLSPG
light: DIQMTQSPSSLSASVGDRVTITCRASESVEYYVTSLMQWYQQKPGKAPKLLIYAASNVDSGVPSRFSGSGSGTDFTLTISSLQPEDIATYYCQQSRKVPFTFGGGTKVEIKRTVAAPSVFIFPPSDEQLKSGTASVVCLLNNFYPREAKVQWKVDNALQSGNSQESVTEQDSKDSTYSLSSTLTLSKADYEKHKVYACEVTHQGLSSPVTKSFNRGEC
notes: CD3 scFv on N-terminus of CD28 Fab; MSLN scFv-Fc; Het Fc, FcKO; also called CD3xCD28xMSLN trispecific
With B1, in test [1], the Kd (commonly a measure of binding affinity in units of concentration) came to 6.49 nM, the off-rate constant (koff) (usually a measure of how fast the partners let go of each other) is 0.00212 s⁻¹ and the kon (commonly the rate constant with which the complex forms) is 340000 M⁻¹ s⁻¹. For the same molecule, in test [2], the Kd was determined as 41.6 nM, the koff was 0.0112 s⁻¹ and the kon came to 270000 M⁻¹ s⁻¹. Besides, in test [3], the Kd is 45.8 nM, the koff worked out at 0.00216 s⁻¹ and the association rate constant (kon) was 47400 M⁻¹ s⁻¹.

B2: v34917 (trispecific antibody, human IgG1, lambda, L234A L235A)
heavy 1: EVQLVESGGGLVQPGGSLRLSCAASGVTFNYYGMSWIRQAPGKGLEWVASITSSGGRIYYPDSVKGRFTISRENTQKTLYLQMNSLRAEDTAVYYCTLDGRDGWVAYWGQGTLVTVSSASTKGPSVFPLAPSSKSTSGGTAALGCLVKDYFPEPVTVSWNSGALTSGVHTFPAVLQSSGLYSLSSVVTVPSSSLGTQTYICNVNHKPSNTKVDKKVEPKSCDKTHTCPPCPAPEAAGGPSVFLFPPKPKDTLMISRTPEVTCVVVSVSHEDPEVKFNWYVDGVEVHNAKTKPREEQYNSTYRVVSVLTVLHQDWLNGKEYKCKVSNKALPAPIEKTISKAKGQPREPQVYVYPPSRDELTKNQVSLTCLVKGFYPSDIAVEWESNGQPENNYKTTPPVLDSDGSFALVSKLTVDKSRWQQGNVFSCSVMHEALHNHYTQKSLSLSPGGGGGSGDIQMTQSPSSLSASVGDRVTITCRASESVEYYVTSLMQWYQQKPGKAPKLLIYAASNVDSGVPSRFSGSGSGTDFTLTISSLQPEDIATYYCQQSRKVPFTFGGGTKVEIKGGGGSGGGGSGGGGSGGGGSQVQLQESGPGLVKPSETLSLTCAVSGFSLTSYGVHWIRQPPGKGLEWLGVIWPGGGTNFNSALMSRLTISEDTSKNQVSLKLSSVTAADTAVYYCARDRAYGNYLYAMDYWGQGTLVTVSS
heavy 2: EIVLTQSPATLSLSPGERVTMSCSASSSVSYMHWYQQKPGQAPRLWIYDTSKLASGVPARFSGSGSGTDYTLTISSVEPEDNAVYYCQQWSGHPLTFGQGTKVEIKGGGGSGGGGSGGGGSGGGGSQVQLVQSGAEVKKPGASVKISCKASGYSFTGYTMNWVRQAPGQGLEWIGLITPYSGASSYAQKFQGRATLTVDKSTSTAYMELSSLRSEDTAVYYCARGGYDGRGFDYWGQGTNVTVSSAAEPKSSDKTHTCPPCPAPEAAGGPSVFLFPPKPKDTLMISRTPEVTCVVVSVSHEDPEVKFNWYVDGVEVHNAKTKPREEQYNSTYRVVSVLTVLHQDWLNGKEYKCKVSNKALPAPIEKTISKAKGQPREPQVYVLPPSRDELTKNQVSLLCLVKGFYPSDIAVEWESNGQPENNYLTWPPVLDSDGSFFLYSKLTVDKSRWQQGNVFSCSVMHEALHNHYTQKSLSLSPG
light: NFMLTQPHSVSESPGKTVTISCKRNTGNIGSNYVNWYQQHEGSSPTTIIYRNDKRPDGVSDRFSGSIDRSSKSASLTISNLKTEDEADYFCQSYSSGFIFGGGTKLTVLGQPKAAPSVTLFPPSSEELQANKATLVCLISDFYPGAVTVAWKADSSPVKAGVETTTPSKQSNNKYAASSYLSLTPEQWKSHRSYSCQVTHEGSTVEKTVAPTECS
notes: Het Fc, FcKO; also called CD28xCD3xMSLN trispecific
For the molecule B2, in test [1], the Kd is 4.96 nM, the koff stood at 0.00199 s⁻¹ and the kon is 411000 M⁻¹ s⁻¹. In test [2], the Kd is 40.8 nM, the koff is 0.0177 s⁻¹ and the kon was found to be 444000 M⁻¹ s⁻¹. For the same molecule, in test [3], the Kd amounted to 373 nM, the koff worked out at 0.00209 s⁻¹ and the kon came to 8240 M⁻¹ s⁻¹.

B3: v34916 (trispecific antibody, human IgG1, lambda, L234A L235A)
heavy 1: not shown
heavy 2: EIVLTQSPATLSLSPGERVTMSCSASSSVSYMHWYQQKPGQAPRLWIYDTSKLASGVPARFSGSGSGTDYTLTISSVEPEDNAVYYCQQWSGHPLTFGQGTKVEIKGGGGSGGGGSGGGGSGGGGSQVQLVQSGAEVKKPGASVKISCKASGYSFTGYTMNWVRQAPGQGLEWIGLITPYSGASSYAQKFQGRATLTVDKSTSTAYMELSSLRSEDTAVYYCARGGYDGRGFDYWGQGTNVTVSSAAEPKSSDKTHTCPPCPAPEAAGGPSVFLFPPKPKDTLMISRTPEVTCVVVSVSHEDPEVKFNWYVDGVEVHNAKTKPREEQYNSTYRVVSVLTVLHQDWLNGKEYKCKVSNKALPAPIEKTISKAKGQPREPQVYVLPPSRDELTKNQVSLLCLVKGFYPSDIAVEWESNGQPENNYLTWPPVLDSDGSFFLYSKLTVDKSRWQQGNVFSCSVMHEALHNHYTQKSLSLSPG
light: NFMLTQPHSVSESPGKTVTISCKRNTGNIGSNYVNWYQQHEGSSPTTIIYRNDKRPDGVSDRFSGSIDRSSKSASLTISNLKTEDEADYFCQSYSSGFIFGGGTKLTVLGQPKAAPSVTLFPPSSEELQANKATLVCLISDFYPGAVTVAWKADSSPVKAGVETTTPSKQSNNKYAASSYLSLTPEQWKSHRSYSCQVTHEGSTVEKTVAPTECSGGGGSGDIQMTQSPSSLSASVGDRVTITCRASESVEYYVTSLMQWYQQKPGKAPKLLIYAASNVDSGVPSRFSGSGSGTDFTLTISSLQPEDIATYYCQQSRKVPFTFGGGTKVEIKGGGGSGGGGSGGGGSGGGGSQVQLQESGPGLVKPSETLSLTCAVSGFSLTSYGVHWIRQPPGKGLEWLGVIWPGGGTNFNSALMSRLTISEDTSKNQVSLKLSSVTAADTAVYYCARDRAYGNYLYAMDYWGQGTLVTVSS
notes: CD28 scFv on C-terminus of the CD3 Fab light chain; Het Fc, FcKO; also called CD3xCD28xMSLN trispecific
Take B3: in test [1], the Kd came to 4.78 nM, the koff was 0.00181 s⁻¹ and the kon came to 388000 M⁻¹ s⁻¹. Further, in test [2], the Kd was determined as 37.2 nM, the koff amounted to 0.0104 s⁻¹ and the kon was 291000 M⁻¹ s⁻¹. Moreover, in test [3], the Kd was determined as 56.5 nM, the koff stood at 0.000546 s⁻¹ and the kon turned out to be 13000 M⁻¹ s⁻¹.

B4: v34914 (trispecific antibody, human IgG1, lambda, L234A L235A)
heavy 1: not shown
heavy 2: EIVLTQSPATLSLSPGERVTMSCSASSSVSYMHWYQQKPGQAPRLWIYDTSKLASGVPARFSGSGSGTDYTLTISSVEPEDNAVYYCQQWSGHPLTFGQGTKVEIKGGGGSGGGGSGGGGSGGGGSQVQLVQSGAEVKKPGASVKISCKASGYSFTGYTMNWVRQAPGQGLEWIGLITPYSGASSYAQKFQGRATLTVDKSTSTAYMELSSLRSEDTAVYYCARGGYDGRGFDYWGQGTNVTVSSAAEPKSSDKTHTCPPCPAPEAAGGPSVFLFPPKPKDTLMISRTPEVTCVVVSVSHEDPEVKFNWYVDGVEVHNAKTKPREEQYNSTYRVVSVLTVLHQDWLNGKEYKCKVSNKALPAPIEKTISKAKGQPREPQVYVLPPSRDELTKNQVSLLCLVKGFYPSDIAVEWESNGQPENNYLTWPPVLDSDGSFFLYSKLTVDKSRWQQGNVFSCSVMHEALHNHYTQKSLSLSPG
light: NFMLTQPHSVSESPGKTVTISCKRNTGNIGSNYVNWYQQHEGSSPTTIIYRNDKRPDGVSDRFSGSIDRSSKSASLTISNLKTEDEADYFCQSYSSGFIFGGGTKLTVLGQPKAAPSVTLFPPSSEELQANKATLVCLISDFYPGAVTVAWKADSSPVKAGVETTTPSKQSNNKYAASSYLSLTPEQWKSHRSYSCQVTHEGSTVEKTVAPTECS
notes: as for B2
Consider B4, for which, in test [1], the equilibrium dissociation constant (Kd) is 5.39 nM, the koff amounted to 0.00197 s⁻¹ and the kon amounted to 374000 M⁻¹ s⁻¹. Moreover, in test [2], the Kd stood at 81.1 nM, the koff stood at 0.0191 s⁻¹ and the kon came to 237000 M⁻¹ s⁻¹. Moreover, in test [3], the Kd was found to be 122 nM, the koff was 0.00849 s⁻¹ and the kon was 70200 M⁻¹ s⁻¹.
